Data taken from patent US10287521B2, “Enzymatic removal of steryl glycosides” (KECLON S.A., priority 2012, dated 2019).

Assays:
[1] = Steryl glycoside hydrolysis in distilled biodiesel/water mixture (Example 5); type: biochemical
Method: Steryl glycosidase activity is measured as follows: • a) Prepare a stock solution of steryl glycoside by dissolving 10 milligrams (mg) of steryl glycoside in 1 milliliter (ml) of a 3:1 mixture of tetrahydrofuran:water. • b) Add the steryl glycoside to a final concentration of 100 microgram per milliliter (μg/ml) in 1 ml of a reaction mixture containing 50 millimolar (mM) Phosphate buffer pH 6.5 and 5 μg of steryl glycosidase in an Eppendorf tube. • c) Place the reaction mixture on a shaker incubator and incubate at 80° C. for 4 h. • d) Extract the reaction mixture with 1 ml of ethyl acetate and evaporate to dryness under vacuum. • e) Re-dissolve the sample in 10 microliter (μl) of ethyl acetate • f) Analyze by thin layer chromatography (TLC) the presence of free sterols, generated as a result of steryl glycoside hydrolysis after the enzymatic treatment, using Hexane:Methanol 85:15 as running buffer and develop with ρ-anisaldehide • d) Alternatively, analyze 50 μl sample of the reaction mixture for the presence of glucose using an assay based on the Hexokinase/Glucose 6-P-dehydrogenase method: the glucose generated by steryl glycoside hydrolisis is converted by Hexokinase (or Glucokinase) into glucose 6-phosphate. Glucose 6-phosphate is further oxidized by Glucose 6-P dehydrogenase, simultaneously reducing NADP+ to NADPH. The NADPH generated is detected by fluorescence (λex: 338 nm, λem: 461 nm) and allows detection of glucose levels below 1 ppm. The assay can be adapted to microplates scale and detected in a Synergy microplate reader.
The following is an example of how to use a steryl glycosidase to remove steryl glycosides from a biodiesel mixture: • a) A 42.5 ml distilled biodiesel sample containing 100 ppm of steryl glycosides is mixed with 7.5 ml of a water solution containing 50 mM Phosphate buffer pH 6.5 and 300 μg of steryl glycosidase. […]

[2] = Steryl glycoside hydrolysis in crude biodiesel (Example 6); type: biochemical; settings: about 70 ppm steryl glycosides, 8 mg enzyme, 80° C., in 3 h

Molecule	steryl glycoside hydrolysis, dependence on emulsifier ([1]; distilled biodiesel/water, 80° C., with or without 5% ADMUL emulsifier)	steryl glycoside hydrolysis compared with LacS ([1]; Bio/water+ADMUL emulsions, data not shown)	steryl glycoside hydrolysis ([1]; without the addition of any emulsifier, in 3 h, 80° C.) [%]	steryl glycoside hydrolysis in crude biodiesel [2]
LacS: steryl glycosidase LacS from S. solfataricus (SEQ ID NO.: 2) (protein, listed as Sulfolobus solfataricus) MYSFPNSFRFGWSQAGFQSEMGTPGSEDPNTDWYKWVHDPENMAAGLVSGDLPENGPGYWGNYKTFHDNAQKMGLKIARLNVEWSRIFPNPLPRPQNFDESKQDVTEVEINENELKRLDEYANKDALNHYREIFKDLKSRGLYFILNMYHWPLPLWLHDPIRVRRGDFTGPSGWLSTRTVYEFARFSAYIAWKFDDLVDEYSTMNEPNVVGGLGYVGVKSGFPPGYLSFELSRRAMYNIIQAHARAYDGIKSVSKKPVGIIYANSSFQPLTDKDMEAVEMAENDNRWWFFDAIIRGEITRGNEKIVRDDLKGRLDWIGVNYYTRTVVKRTEKGYVSLGGYGHGCERNSVSLAGLPTSDFGWEFFPEGLYDVLTKYWNRYHLYMYVTENGIADDADYQRPYYLVSHVYQVHRAINSGADVRGYLHWSLADNYEWASGFSMRFGLLKVDYNTKRLYWRPSALVYREIATNGAITDEIEHLNSVPPVKPLRH	could only exhibit steryl glycoside hydrolisis when reactions were performed in the presence of ADMUL™	–	–	–
TL: steryl glycosidase TL from T. litoralis (SEQ ID NO.: 17) (protein, listed as Thermococcus litoralis) FPEKFLFGTSTAAHQVEGDNRWNDWWYYEEIGKLPYKSGKACNHWGLYREDIELMAQLGYNAYRFSIEWSRLFPEEGKFNEDAFNRYREIIELLLEKGITPNVTLHHFTSPLWFMRKGGFLKEENLKYWEKYVDKAAELLKGVKLVATFNEPMVYVMMGYLTAYWPPFVKSPFKAFKVAANLLKAHAMAYDILHGNFDVGIVKNIPIMLPASNREKDIKAAQKADNLFNWNFLDAIWSGKYKGAFGTYKTPESDVDFIGINYYTASEVRHSWNPLKFFFDAKLADLSERKTDMGWSVYPKGIYEAIAKVSRYGKPMYITENGIATLEDEWRIEFIIQHLQYVHKALNDGFDLRGYFYWSFMDNYEWAEGFRPRFGLVEVDYTTFERRPRKSGYVYGEIAREKKIKDELLAKYGLPEL	–	higher and faster hydrolysis	~100	could completely hydrolize steryl glycosides
